Drawing on patent publication US20260347496 (published 2026), this text covers Kd and EC50 for 22 molecules.

Numbering of substitutions follows the chain as printed. “And” between values parts separate entries of the source, which are not always exact repeats. Equal entries are not always repeated. Where two headings read alike, the source gives them in different places.

Assay [1] deals with T1, CD24 biotinylated (ACRO CD4-H82E9) (human, UniProt P25063).
T1 chain: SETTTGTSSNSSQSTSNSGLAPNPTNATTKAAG
As to the kind of experiment: SPR. (In general: In SPR one partner is held on a chip, and binding of the other changes the refractive index at the surface.)

Assay [2] concerns the target CD24(27-56aa)-GST NEOX-4 (human). As to the kind of experiment: ELISA. In general terms: An ELISA detects its analyte on a solid surface through an enzyme-linked reagent.
For assay [3] the target is unchanged. Put plainly: ELISA. This is another data set of the same source.
For assay [4] the target is unchanged. Put plainly: ELISA. This is another data set of the same source.
Assay [5] concerns the target T2, CD24 (cell surface) (human).
T2 chain: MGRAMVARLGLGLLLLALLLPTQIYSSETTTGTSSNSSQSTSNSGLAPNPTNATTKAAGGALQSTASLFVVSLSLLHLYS
As to the kind of experiment: FACS, NALM6.

Assay [6] addresses T2, CD24 (cell surface). As to the kind of experiment: FACS, MDA-MB-468. On the technique in general: Flow cytometry measures light scatter and fluorescence of single cells or particles in a stream.
Assay [7] addresses T1, CD24 biotinylated (ACRO CD4-H82E9). Put plainly: SPR.

Sequence of CD24(27-56aa)-GST NEOX-4 (human) (chain, as listed by the source): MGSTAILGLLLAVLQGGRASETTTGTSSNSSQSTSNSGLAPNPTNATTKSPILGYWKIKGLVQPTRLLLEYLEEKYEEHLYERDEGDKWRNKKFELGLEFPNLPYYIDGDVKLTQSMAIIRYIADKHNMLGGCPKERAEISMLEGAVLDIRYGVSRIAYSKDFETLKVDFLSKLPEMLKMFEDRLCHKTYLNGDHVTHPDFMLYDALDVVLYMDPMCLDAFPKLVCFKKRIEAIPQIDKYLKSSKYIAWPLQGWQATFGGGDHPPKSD

B1: G14 (antibody, V domains shown)
VH: EVKLEESGGGLVQPGGSMKLSCVASGLTFSNYWMNWVRQSPEKGLEWVALIRLYSDNYAIHYAESVKGRFTISRDDSKSSVYLQMNNLRAEDTGIYYCTTGTDYWGQGTTLTVSS
VL: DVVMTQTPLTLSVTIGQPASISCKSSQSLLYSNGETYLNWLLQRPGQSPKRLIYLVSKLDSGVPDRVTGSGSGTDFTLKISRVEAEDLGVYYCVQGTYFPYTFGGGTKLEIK
Take B1: in assay [1], the Kd came out at 12.1 nM. Further, the EC50 was 0.0248 µg/mL and 0.00988 µg/mL in assay [2]; 0.0366 µg/mL in assay [3]; 0.031 µg/mL in assay [4]; 7.3 µg/mL and 18.5 µg/mL in assay [5].

B2: huG14-217 (antibody, V domains shown)
VH: EVQLVESGGGLVKPGGSLRLSCAASGLTFSNYWGNWVRQAPGKGLEWVALIRLYSDNYAIHYAESVKGRFTISRDDSKSTVYLQMNSLKTEDTAVYYCTTGTDYWGQGTTVTVSS
VL: DVVMTQSPLSLPVTPGRPASISCKSSHSLLYSNGRTYLNWLLQKPGQSPQRLIYLVSKLDSGVPDRFSGSGSGTDFTLKISRVEAEDLGVYYCIQGTYFPYTFGQGTKLEIK
For B2, the figures for the EC50 in assay [3], in assay [5] and in assay [6] were 0.00443 µg/mL, 0.348 µg/mL and 1.21 µg/mL, respectively.

B3: huG14-216 (antibody, V domains shown)
VH: B2 VH
VL: B2 VL with R35K
B3: the results for the EC50 in assay [3], in assay [5] and in assay [6] were 0.0044 µg/mL, 0.431 µg/mL and 0.676 µg/mL, respectively.

B4: huG14-124-5 (antibody, V domains shown)
VH: B2 VH
VL: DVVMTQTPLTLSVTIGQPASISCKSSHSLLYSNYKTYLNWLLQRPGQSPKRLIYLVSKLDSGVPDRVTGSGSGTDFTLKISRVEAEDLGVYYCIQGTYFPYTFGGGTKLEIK
With B4, the Kd in assay [7] was 2.13 nM.

B5: huG14-301 (antibody, V domains shown)
VH: B2 VH with Y104N
VL: B2 VL with P15L, R17Q, G34K, L42Q, K44R, Q50R
B5 returned a Kd in assay [1] of 7.58 nM. The EC50 in assay [5] and in assay [6] was 0.256 µg/mL in each case.

B6: huG14-124-2 (antibody, V domains shown)
VH: B2 VH
VL: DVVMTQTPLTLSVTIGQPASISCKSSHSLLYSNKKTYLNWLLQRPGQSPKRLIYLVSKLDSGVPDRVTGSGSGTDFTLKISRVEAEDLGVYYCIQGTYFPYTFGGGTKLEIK
In the case of B6, the affinity in assay [7], expressed as Kd, was 1.58 nM.

B7: huG14-124 (antibody, V domains shown)
VH: B2 VH
VL: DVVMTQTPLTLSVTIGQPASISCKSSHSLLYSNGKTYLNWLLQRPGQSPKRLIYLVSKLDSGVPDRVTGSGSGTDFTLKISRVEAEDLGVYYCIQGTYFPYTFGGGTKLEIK
Regarding B7, in assay [7], the Kd was determined as 19 nM. In addition, the figures for the EC50 in assay [4], in assay [5] and in assay [6] were 0.00406 µg/mL, 0.609 µg/mL and 0.827 µg/mL, respectively.

B8: huG14-125 (antibody, V domains shown)
VH: B2 VH
VL: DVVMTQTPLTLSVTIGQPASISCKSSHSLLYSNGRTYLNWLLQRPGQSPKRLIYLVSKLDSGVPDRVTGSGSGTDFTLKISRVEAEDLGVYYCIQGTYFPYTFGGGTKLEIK
As for B8, the EC50 amounted to 0.00619 µg/mL in assay [4], 0.443 µg/mL in assay [5] and 0.684 µg/mL in assay [6].

B9: huG14-124-6 (antibody, V domains shown)
VH: B2 VH
VL: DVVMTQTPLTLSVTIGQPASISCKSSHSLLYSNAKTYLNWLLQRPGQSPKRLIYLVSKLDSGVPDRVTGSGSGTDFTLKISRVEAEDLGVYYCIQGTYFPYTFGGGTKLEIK
With B9, the affinity in assay [7], expressed as Kd, was 2.54 nM. In other words, the single-digit nanomolar range.

B10: huG14-124-8 (antibody, V domains shown)
VH: B2 VH
VL: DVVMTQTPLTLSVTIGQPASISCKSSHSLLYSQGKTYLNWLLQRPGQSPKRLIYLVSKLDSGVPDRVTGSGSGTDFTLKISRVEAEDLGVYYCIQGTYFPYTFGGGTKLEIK
For B10, the Kd in assay [7] turned out to be 10.6 nM.

B11: huG14-1 (antibody, V domains shown)
VH: B2 VH with G34M
VL: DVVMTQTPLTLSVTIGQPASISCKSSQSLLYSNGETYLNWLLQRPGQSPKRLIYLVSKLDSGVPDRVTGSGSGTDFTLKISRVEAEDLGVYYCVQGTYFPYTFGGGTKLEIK
Turning to B11, the 50% effective concentration (EC50) was 0.136 µg/mL and 0.128 µg/mL in assay [2]; 0.177 µg/mL in assay [3]; 0.154 µg/mL in assay [4].

B12: huG14-124-1 (antibody, V domains shown)
VH: B2 VH
VL: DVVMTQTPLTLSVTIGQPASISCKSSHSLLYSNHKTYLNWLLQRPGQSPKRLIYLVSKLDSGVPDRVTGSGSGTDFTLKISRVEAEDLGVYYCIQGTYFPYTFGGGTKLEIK
As for B12, the Kd in assay [7] came out at 2.08 nM.

B13: huG14-131 (antibody, V domains shown)
VH: B2 VH with G34M, Y104N
VL: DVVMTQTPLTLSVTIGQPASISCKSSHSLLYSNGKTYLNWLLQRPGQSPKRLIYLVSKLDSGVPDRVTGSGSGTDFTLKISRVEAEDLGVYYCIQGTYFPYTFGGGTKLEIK
As to B13, the EC50 in assay [5] is 0.391 µg/mL; in assay [6] it was 0.57 µg/mL.

B14: huG14-232 (antibody, V domains shown)
VH: B2 VH with Y104N
VL: B2 VL with P12Y
Turning to B14, the EC50 in assay [3] stood at 0.00621 µg/mL; in assay [5] it was 0.235 µg/mL; in assay [6] it was 0.484 µg/mL.

B15: huG14-124-9 (antibody, V domains shown)
VH: B2 VH
VL: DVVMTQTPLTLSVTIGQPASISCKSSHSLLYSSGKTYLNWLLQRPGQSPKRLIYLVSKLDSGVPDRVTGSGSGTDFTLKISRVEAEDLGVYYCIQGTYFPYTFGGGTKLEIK
For B15, the Kd in assay [7] is 9.77 nM.

B16: huG14-230 (antibody, V domains shown)
VH: B2 VH with Y104N
VL: B2 VL with R35K
In the case of B16, the EC50 in assay [3] stood at 0.00889 µg/mL; in assay [5] it was 0.35 µg/mL; in assay [6], 0.63 µg/mL.

B17: huG14-234 (antibody, V domains shown)
VH: B2 VH
VL: B2 VL with G34K, R35K
B17 came in with a Kd in assay [1] of 3.62 nM. Besides, the EC50 in assay [5] and in assay [6] was 0.305 µg/mL throughout.

B18: huG14-235 (antibody, V domains shown)
VH: B2 VH with Y104N
VL: B2 VL with P12Y, G34K
Turning to B18, the Kd in assay [1] worked out at 2.69 nM. In addition, the EC50 in assay [5] and in assay [6] was 0.184 µg/mL each time.

B19: huG14-124-3 (antibody, V domains shown)
VH: B2 VH
VL: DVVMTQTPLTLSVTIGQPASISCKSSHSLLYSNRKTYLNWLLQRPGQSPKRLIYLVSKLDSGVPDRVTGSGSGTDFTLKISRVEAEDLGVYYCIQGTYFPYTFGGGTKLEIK
In assay [7], B19 came in with a Kd of 1.52 nM.

B20: huG14-108 (antibody, V domains shown)
VH: B2 VH with G34M
VL: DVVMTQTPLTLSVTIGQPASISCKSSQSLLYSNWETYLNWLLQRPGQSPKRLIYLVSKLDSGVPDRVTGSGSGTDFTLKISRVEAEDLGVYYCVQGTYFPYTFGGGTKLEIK
In the case of B20, the EC50 in assay [2] is 0.0784 µg/mL.

B21: huG14-124-7 (antibody, V domains shown)
VH: B2 VH
VL: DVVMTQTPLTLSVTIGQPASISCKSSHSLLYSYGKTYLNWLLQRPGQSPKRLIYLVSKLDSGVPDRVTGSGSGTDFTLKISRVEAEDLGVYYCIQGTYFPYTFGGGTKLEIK
As to B21, the Kd in assay [7] was 1.07 nM.

B22: P6373 (antibody, V domains shown)
VH: EVKFEESGGGLVQPGGSIKLSCAASGVTFSEAWMDWVRQSPEKGLEWVAEIRDKPNSYVTYYAESVKGRFTISRDDSKSRVYLQMNNLRTEDTGIYYCTGAMDYWGQGTSVTVSS
VL: DIVMTQTPLSLSVTIGQPASISCKSSQSLLYSNGKTYLNWLQQRPGQSPKRLIYQVSKLDPGIPDRFSGSGSETDFTLKISRVEAEDLGIYYCMQGSSLPWTFGGGTKLEIKR
In the case of B22, the EC50 in assay [5] is 0.469 µg/mL and 0.217 µg/mL.

The term Kd denotes a measure of binding affinity in units of concentration. Low readings indicate higher affinity, high ones lower affinity. A word on the EC50: it is the midpoint of the concentration-response curve.
